The source of these data is the supplement of paper PMC9170038.

The data set relates to MS2 coat protein. Nature of the data set: apparent KD of MS2 coat protein; higher = weaker reporter binding. The note with it: Eterna round: R107. Put shortly: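 The buffer was 100 mM Tris-HCl pH 7.5 with 80 mM KCl and 4 mM MgCl2, used without or with constant ligand. In it, RNA switches transcribed on-chip from Illumina sequencing clusters were titrated with SNAP-549-labelled MS2 coat protein in twofold steps from 0.7 or 1.5 nM to 3 µM. Apparent KD for each design is the median of its normalised cluster binding-curve fits.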

Setting [1] is: input ligand: theophylline 20 uM.
[2] abbreviates: input ligand: theophylline 2 mM.
Where [3] appears, read: input ligand: tryptophan 2.4 mM.

Take “GCAUCCUAGUCGGCCGCCACUGCAUCACCAGUGGCAGGUGAUCAACAUGAGGAUCACCCAUGUAGCAGGACCGGGACUAGGAUGC [(Trp1)-(TM)''-(TM)'-(Ms2)-(Trp2)_Design4]”: the “apparent KD of MS2 coat protein” value was determined as 113 nM (input ligand: arginine 13.2 mM), 163 nM under setting [1] and 168 nM under setting [2].

For the sequence “GCAUCCUAGUCGGCCGCCACUGCAUGUAGGCAGUGCUGCUACAAACAUGAGGAUCACCCAUGUAGCAGGACCGGGACUAGGAUGC [(Trp1)-(MT2)''-(T1)'-(MT2)'-(Ms2)-(Trp2)_Design2]”, the “apparent KD of MS2 coat protein” value reads like this: (input ligand: arginine 13.2 mM) 13 nM; under setting [1], 18.5 nM; under setting [2], 15.6 nM.

Turning to “GCCAGACAUGAGGAUCACCCAUGUAGCGAUACCAGCUCUGUUGUGAGCCCUUGGCAGCGCACUGGCAUCGUAGGUGAUCCAAUAA [(T)''-(Ms2)-(Theo)-(T)'-(M)'_Design1]”, the “apparent KD of MS2 coat protein” value was found to be 50.4 nM (input ligand: arginine 13.2 mM), 114 nM under setting [1] and 45.9 nM under setting [3].

Take “GCCGGGCCCGCGGCCGCCACUGAGAGAGUCGUGUGAACAUGAGGAUCACCCAUGUAAUAUAUAUACAGGACCGGGCGGGCCCGGC [4.X]”: the “apparent KD of MS2 coat protein” value stood at 13.8 nM (input ligand: arginine 13.2 mM); 10.4 nM (input ligand: none); 20.1 nM under setting [1]; 15.7 nM under setting [2]; 13.9 nM under setting [3].

For “GCCUAGCAGCGAAGGAGCGACAUCGGCGCAUGCGAGGACAUGAGGAUCACCCAUGUACCAUGUCAGGUAGGUCGCGCUGCUAGGC [EAB NP+V+V2 #6]”, the “apparent KD of MS2 coat protein” value came to 17.9 nM (input ligand: arginine 13.2 mM); 23.4 nM (input ligand: none); 36.4 nM under setting [1]; 23.2 nM under setting [2]; 24.5 nM under setting [3].

As to “GCGAUGGAGCGAAGGAGCGGCUAAAUGUAUCACAUGAGGAUCACCCAUGUUCCAGGAUGUGGCCAGGUAGGUCGCGCUCCAUCGC [SSAB NP+V+V2 #16]”, the “apparent KD of MS2 coat protein” value runs as follows: (input ligand: arginine 13.2 mM) 233 nM; (input ligand: none) 229 nM; under setting [1], 212 nM; under setting [2], 322 nM; under setting [3], 288 nM.

With “GCGAUGGAGCGAAGGAGCGUGCUGGUACAUGAGGAUCACCCAUGUGAGUCGCAGCGCUAAGCACAGGUAGGUCGCGCUCCAUCGC [EAB NP+V+V2 #11]”, the “apparent KD of MS2 coat protein” value reads like this: (input ligand: arginine 13.2 mM) 49.1 nM; (input ligand: none) 28 nM; under setting [1], 35.3 nM; under setting [2], 34.5 nM; under setting [3], 34.2 nM.

Consider “GCGGUACGUACUGAUACCAGAGACAUGAGGAUCACCCAUGUCCCAUGGUCAUGCCUCAGACUCCCUUGGCAGCAGGAUAAGUGCG [Exclusion Theophylline B GF3]”, for which the “apparent KD of MS2 coat protein” value reads like this: (input ligand: arginine 13.2 mM) 14.3 nM; (input ligand: none) 13.9 nM; under setting [1], 17.1 nM; under setting [2], 40.4 nM; under setting [3], 12.8 nM.

For the sequence “GCGUACGAUCGGGAUACCAGACAUUGCCGUUAGGGUGAACUUGAGGAUCACCCAAGUUUUGUCCCUUGGCAGCCCGAUCGUACGC [ETB NP+V+V2 #9 Diff Apt, Same Structure]”, the “apparent KD of MS2 coat protein” value (input ligand: arginine 13.2 mM) is 9.92 nM; the “apparent KD of MS2 coat protein” value (input ligand: none) worked out at 10 nM; the “apparent KD of MS2 coat protein” value under setting [1] was 19.4 nM; the “apparent KD of MS2 coat protein” value under setting [2] is 220 nM; the “apparent KD of MS2 coat protein” value under setting [3] turned out to be 10.4 nM.

On to “GCGUUCUCUGCGGCCGCCACUCAAGGAGCUACAUAGCUCCUAGACAUGAGGAUCACCCAUGUCGCGAGGACCGGGUAGAUCCUUA [Same State Typptophan B GF8]”, for which the “apparent KD of MS2 coat protein” value (input ligand: arginine 13.2 mM) came out at 116 nM; the “apparent KD of MS2 coat protein” value (input ligand: none) worked out at 159 nM; the “apparent KD of MS2 coat protein” value under setting [1] was determined as 288 nM; the “apparent KD of MS2 coat protein” value under setting [2] came out at 360 nM; the “apparent KD of MS2 coat protein” value under setting [3] turned out to be 120 nM.

For the sequence “GCGUUCUCUGCGGCCGCCACUCAAGGAGCUACAUAGCUCCUAGACAUGAGGAUCACCCAUGUGGCGAGGACCGGGUAGAUCCUUA [Same State Typptophan B GF7]”, the “apparent KD of MS2 coat protein” value reads like this: (input ligand: arginine 13.2 mM) 76.3 nM; under setting [1], 359 nM; under setting [2], 337 nM.

With “GCGUUGGCCACGGCCGCCACUCAGGUACCGCGCGUAGUGAACUUACAUGAGGAUCACCCAUGUCUGAGGACCGGGUGGCCGCCAC [theeternabot_sameState_MS2_Trp_B_27]”, the “apparent KD of MS2 coat protein” value runs as follows: (input ligand: arginine 13.2 mM) 31.7 nM; under setting [1], 70.3 nM; under setting [2], 46.1 nM.

Regarding “GCUACAUGAGGAUCACCCAUGUGUACUGAAGGAGCGGCGGAAACGCCAGGUAGGUCGCAGUAUGUGGCUCUGGGCACGAGAAAGC [SSAA NP+V+V2 #2]”, the “apparent KD of MS2 coat protein” value worked out at 36.6 nM (input ligand: arginine 13.2 mM); 25.3 nM (input ligand: none); 28.3 nM under setting [1]; 72.9 nM under setting [2]; 34.3 nM under setting [3].

Regarding “GCUAGGUCAUCGGCCGCCACUAACGACGGUUCCAACAUGAGGAUCACCCAUGUGCCACAUGCGCAUAGGACCGGGAUGACCUAGC [SSTB NP+V+V2 #5]”, the “apparent KD of MS2 coat protein” value amounted to 31.1 nM (input ligand: arginine 13.2 mM), 51.2 nM under setting [1] and 42.7 nM under setting [2].

Take “GCUAGUGGCAGAAGGAGCGGCAUACAUGCAAGUGACAUGAGGAUCACCCAUGUAAGGGAAUGCCAGGUAGGUCGCUGCCACUAGC [EAB NP+V+V2 #2 +-Same Structure]”: the “apparent KD of MS2 coat protein” value is, setting by setting: (input ligand: arginine 13.2 mM) 36.2 nM; (input ligand: none) 61.5 nM; under setting [1], 89.6 nM; under setting [2], 89.2 nM; under setting [3], 64.2 nM.

Regarding “GCUGCCGUCGGUGAAAACUCCCAUGCAGAUACCAGCGCAUUCCGCCGCCCUUGGCAGCUGCAUACAUGAGGAUCACCCAUGUGUU [theeternabot_exclusion_MS2_Theo_A_48]”, the “apparent KD of MS2 coat protein” value is 41.4 nM (input ligand: arginine 13.2 mM), 161 nM under setting [1] and 77.3 nM under setting [3].
